According to paper doi:10.1101/2021.08.09.455663:

What was measured:
[1] = target: phosphorylated STAT1 dimer (pSTAT1d) (UniProt P42224); experiment: BLI
[2] = target: GST-tagged TgIST-R2 (Toxoplasma gondii); experiment: BLI

“TgIST-R2 peptide after GST removal (domain or fragment)” gave a Kd [1] of 330 nM.
For “phosphorylated STAT1 dimer (pSTAT1d) (from UniProt P42224 132-713) (domain or fragment)”, the Kd [2] was 22 nM.
